The supplement of paper PMC10567573

B1: USP39 (parent)
chain: FVEKNPTIVNFPITNVDLREYLSE

Variants of: B1
Test: protein stability index of a GFP-peptide fusion (GPS, HEK-293T) (PSI 1-6); higher = more stable
Conditions: c terminus: a fixed tail appended
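Also: lentivirally expressed fusions sorted by FACS into six bins by GFP to DsRed ratio, PSI derived from sequencing read proportions per bin multiplied by bin number.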

First: FVEKNETIVNFPITNVDLREYLSE [P6E]
Second: FVEKNPTIVNFPIGNVDLREYLSE [T14G]
The protein stability index of the first is higher: 2.21 for the first, 1.82 for the second.

First: FVEKNPTIVNMPITNVDLREYLSE [F11M]
Second: FVEKNPTIDNFPITNVDLREYLSE [V9D]
The protein stability index of the first is lower: 1.78 for the first, 2.27 for the second.

First: FVQKNPTIVNFPITNVDLREYLSE [E3Q]
Second: FVEKNPTIENFPITNVDLREYLSE [V9E]
The protein stability index of the first is lower: 1.58 for the first, 2.91 for the second.

First: FVEKNPTIVNFPITNVFLREYLSE [D17F]
Second: FVEKNPTIVNFPITNVDLREYWSE [L22W]
The protein stability index of the first is higher: 2.63 for the first, 1.74 for the second.

Compared with FVEKNPTIVNFSITNVDLREYLSE [P12S], FVEKNPTIVNFPITNVDLREYGSE [L22G] is higher in protein stability index: 1.34 for the first, 2.12 for the second.

Going from FVEKNPTIVDFPITNVDLREYLSE [N10D] to FVEKNLTIVNFPITNVDLREYLSE [P6L], the protein stability index falls from 2.14 to 1.19.

Compared with FVEPNPTIVNFPITNVDLREYLSE [K4P], FVEKNPTVVNFPITNVDLREYLSE [I8V] is higher in protein stability index: 1.61 for the first, 1.89 for the second.

Compared with FMEKNPTIVNFPITNVDLREYLSE [V2M], FVEKNPTIVNFCITNVDLREYLSE [P12C] is lower in protein stability index: 3.36 for the first, 1.48 for the second.

First: FVEKNPTIVNFPDTNVDLREYLSE [I13D]
Second: FVETNPTIVNFPITNVDLREYLSE [K4T]
The protein stability index of the first is lower: 2.17 for the first, 2.29 for the second.

Compared with FVEKNPTIVNFPRTNVDLREYLSE [I13R], FVEKNPTIVNFPITNVDLRFYLSE [E20F] is lower in protein stability index: 1.98 for the first, 1.71 for the second.

First: FVEKNPTIVNFPITNVDLRVYLSE [E20V]
Second: WVEKNPTIVNFPITNVDLREYLSE [F1W]
The protein stability index of the first is lower: 2.28 for the first, 2.49 for the second.

Compared with GVEKNPTIVNFPITNVDLREYLSE [F1G], FVEKNPTIVNFPITCVDLREYLSE [N15C] is lower in protein stability index: 3.26 for the first, 1.77 for the second.

First: FVEKNPTIVNFPITNVDLREYLSI [E24I]
Second: FVEKNPTIVAFPITNVDLREYLSE [N10A]
The protein stability index of the first is lower: 1.64 for the first, 2.02 for the second.

First: FVEKNPTIVNFPITNVDLTEYLSE [R19T]
Second: FVIKNPTIVNFPITNVDLREYLSE [E3I]
The protein stability index of the first is lower: 1.63 for the first, 1.85 for the second.

Going from FVEKNPNIVNFPITNVDLREYLSE [T7N] to FVEKNPTIVNFRITNVDLREYLSE [P12R], the protein stability index rises from 2.39 to 2.74.

Compared with FVEKNPTIVNFPSTNVDLREYLSE [I13S], FVEKNPTIVNQPITNVDLREYLSE [F11Q] is lower in protein stability index: 2.59 for the first, 2.09 for the second.

First: FVEKNPTIVNFPITNVDLREYLSN [E24N]
Second: FKEKNPTIVNFPITNVDLREYLSE [V2K]
The protein stability index of the first is lower: 2.24 for the first, 3.26 for the second.

Going from FVFKNPTIVNFPITNVDLREYLSE [E3F] to FVEKNPSIVNFPITNVDLREYLSE [T7S], the protein stability index falls from 2.57 to 1.5.

Compared with FQEKNPTIVNFPITNVDLREYLSE [V2Q], FVERNPTIVNFPITNVDLREYLSE [K4R] is lower in protein stability index: 2.81 for the first, 1.9 for the second.

Going from FVEKNPTIVNFPITNVDLVEYLSE [R19V] to FVEKNPEIVNFPITNVDLREYLSE [T7E], the protein stability index rises from 1.83 to 2.

Compared with FVEKNPTEVNFPITNVDLREYLSE [I8E], FVEKNPTIVNFPITNVDLRLYLSE [E20L] is lower in protein stability index: 2.67 for the first, 1.39 for the second.

Compared with FVEKNPTIVNFPITQVDLREYLSE [N15Q], FVEKNPTIVNFPITNVDLREYLGE [S23G] is lower in protein stability index: 2.13 for the first, 1.34 for the second.

Compared with FVEKNPTIVNFPITNVDLREYLPE [S23P], FVEKNPTICNFPITNVDLREYLSE [V9C] is lower in protein stability index: 2.13 for the first, 1.5 for the second.

First: FVEKNPTIVNFPITNVDLREYISE [L22I]
Second: FVEKDPTIVNFPITNVDLREYLSE [N5D]
The protein stability index of the first is lower: 1.93 for the first, 2.74 for the second.

Going from FVEKNPTIVNFPITNVDLREYLME [S23M] to FVEKNPTIVQFPITNVDLREYLSE [N10Q], the protein stability index rises from 2 to 2.3.

Compared with FVEKNPTIVNFPITNVDLREMLSE [Y21M], FVEFNPTIVNFPITNVDLREYLSE [K4F] is lower in protein stability index: 1.49 for the first, 1.14 for the second.

Compared with FVEKNPTIVNFGITNVDLREYLSE [P12G], FVEKNPTIVNFPIFNVDLREYLSE [T14F] is lower in protein stability index: 2.21 for the first, 1.98 for the second.

Going from FVEKNPTIVNFPITNVDLRWYLSE [E20W] to FVEKNPTIVNFPITNVHLREYLSE [D17H], the protein stability index rises from 1.77 to 2.25.

Compared with RVEKNPTIVNFPITNVDLREYLSE [F1R], FVEKNPTDVNFPITNVDLREYLSE [I8D] is lower in protein stability index: 3.78 for the first, 2.77 for the second.

Going from FVEKNPTIVNFPITNLDLREYLSE [V16L] to FVEKNPDIVNFPITNVDLREYLSE [T7D], the protein stability index rises from 2.05 to 2.15.

Going from FVEKNPTIVNFPITNVDLREFLSE [Y21F] to FVEKNPTIVNFPIRNVDLREYLSE [T14R], the protein stability index rises from 2.04 to 2.78.

Compared with FVEKNPTIVPFPITNVDLREYLSE [N10P], FVEKNPTIVNFPIPNVDLREYLSE [T14P] is lower in protein stability index: 2.42 for the first, 1.54 for the second.

First: FVEKNPTIVNFPITNVDLREALSE [Y21A]
Second: FVEKTPTIVNFPITNVDLREYLSE [N5T]
The protein stability index of the first is lower: 2.35 for the first, 2.37 for the second.

First: FVEINPTIVNFPITNVDLREYLSE [K4I]
Second: FVEKNPTIVNFPQTNVDLREYLSE [I13Q]
The protein stability index of the first is lower: 1.07 for the first, 2.22 for the second.

Compared with FVEKNPTIVNFPITNVDLREGLSE [Y21G], FVEKNPTIVNFPITNVDSREYLSE [L18S] is lower in protein stability index: 2.44 for the first, 1.43 for the second.

First: FVEKNPTIVNFPITNVDLREYLIE [S23I]
Second: FVPKNPTIVNFPITNVDLREYLSE [E3P]
The protein stability index of the first is higher: 3.78 for the first, 2.41 for the second.

Compared with FVWKNPTIVNFPITNVDLREYLSE [E3W], FVEKNPTIVNFPISNVDLREYLSE [T14S] is higher in protein stability index: 1.55 for the first, 2.08 for the second.

Going from FVEKNPTIVNFPLTNVDLREYLSE [I13L] to FVEKNPTIVNFPMTNVDLREYLSE [I13M], the protein stability index rises from 1.67 to 2.6.

First: FVEKNPTIVNFPITNVYLREYLSE [D17Y]
Second: FVEKNPTIVNFPIANVDLREYLSE [T14A]
The protein stability index of the first is higher: 1.84 for the first, 1.74 for the second.

Compared with FVEKNPTIVNFPIQNVDLREYLSE [T14Q], FVEKNPTIVNFPITNVDLREYFSE [L22F] is higher in protein stability index: 1.81 for the first, 2.1 for the second.

First: FVEKNPTIVNWPITNVDLREYLSE [F11W]
Second: FVEKNPTIVNFNITNVDLREYLSE [P12N]
The protein stability index of the first is lower: 1.23 for the first, 2.3 for the second.

First: FVEKNPTIVNFPIENVDLREYLSE [T14E]
Second: FVEKNPTIVNFPITNVDLREYLTE [S23T]
The protein stability index of the first is higher: 1.43 for the first, 1.06 for the second.

Compared with FVEKNQTIVNFPITNVDLREYLSE [P6Q], FIEKNPTIVNFPITNVDLREYLSE [V2I] is higher in protein stability index: 1.98 for the first, 2.3 for the second.

First: FVEKNPTIVNFPITNVDLEEYLSE [R19E]
Second: FVEKNPTIVKFPITNVDLREYLSE [N10K]
The protein stability index of the first is lower: 2.09 for the first, 2.48 for the second.

Compared with FVEKNPTIVNFPITNVDLREYLSL [E24L], TVEKNPTIVNFPITNVDLREYLSE [F1T] is higher in protein stability index: 2.27 for the first, 3.87 for the second.

First: FVEKNPTIVNFPITNVDLREYLQE [S23Q]
Second: FVEKNPTIVNFPITNVDLREWLSE [Y21W]
The protein stability index of the first is higher: 1.78 for the first, 1.47 for the second.

First: FVEKNPTIVNFPITNVDLAEYLSE [R19A]
Second: FVEKNPTIVNFIITNVDLREYLSE [P12I]
The protein stability index of the first is higher: 2.92 for the first, 2.38 for the second.
